Data published in paper PMC2193676.

Biological target: biotinylated K^d-SYIPSAEK(ABA)I (H-2K^d heavy chain, human β2-microglobulin, photoreactive PbCS(ABA) peptide) (not stated | human | Plasmodium berghei)
Assay: SPR

Substance “soluble CD8αβ (extracellular portions of murine CD8α and CD8β fused to leucine zipper units) (complex)” has a Kd of 99 µM.
